Experimental data taken from patent US8980581B2, “Site-specific incorporation of amino acids into molecules” (California Institute of Technology, priority 2006, dated 2015).
Converted amounts (≈) assume the structure as drawn. Read-outs that look alike come from different tables or passages of the source.

Legend:
[1] = target: mu-yPheRS (Thr415Gly or Thr415Ala mutation in the α-subunit) (Saccharomyces cerevisiae, UniProt P15625, T415G); test: adenosine triphosphate-pyrophosphate exchange assay, activation of NaI and Phe by mu-yPheRS; assay type: biochemical
Sequence of mu-yPheRS (Thr415Gly or Thr415Ala mutation in the α-subunit) (P15625 2-503 T415G): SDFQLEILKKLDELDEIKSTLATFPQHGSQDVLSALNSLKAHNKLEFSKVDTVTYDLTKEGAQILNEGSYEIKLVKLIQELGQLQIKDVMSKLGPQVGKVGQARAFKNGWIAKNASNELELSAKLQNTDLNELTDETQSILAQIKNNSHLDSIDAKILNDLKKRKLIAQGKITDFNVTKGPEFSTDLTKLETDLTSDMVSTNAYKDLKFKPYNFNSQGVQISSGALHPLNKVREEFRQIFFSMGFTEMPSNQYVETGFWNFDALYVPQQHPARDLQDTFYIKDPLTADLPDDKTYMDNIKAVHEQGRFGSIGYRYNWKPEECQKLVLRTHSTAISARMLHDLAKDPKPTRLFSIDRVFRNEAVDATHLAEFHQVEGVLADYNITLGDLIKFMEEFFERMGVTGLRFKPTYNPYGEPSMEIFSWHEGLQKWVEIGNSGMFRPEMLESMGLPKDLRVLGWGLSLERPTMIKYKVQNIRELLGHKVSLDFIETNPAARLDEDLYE
Sequence of mu-yPheRS (Thr415Gly or Thr415Ala mutation in the α-subunit) (P15624 2-595, further chain): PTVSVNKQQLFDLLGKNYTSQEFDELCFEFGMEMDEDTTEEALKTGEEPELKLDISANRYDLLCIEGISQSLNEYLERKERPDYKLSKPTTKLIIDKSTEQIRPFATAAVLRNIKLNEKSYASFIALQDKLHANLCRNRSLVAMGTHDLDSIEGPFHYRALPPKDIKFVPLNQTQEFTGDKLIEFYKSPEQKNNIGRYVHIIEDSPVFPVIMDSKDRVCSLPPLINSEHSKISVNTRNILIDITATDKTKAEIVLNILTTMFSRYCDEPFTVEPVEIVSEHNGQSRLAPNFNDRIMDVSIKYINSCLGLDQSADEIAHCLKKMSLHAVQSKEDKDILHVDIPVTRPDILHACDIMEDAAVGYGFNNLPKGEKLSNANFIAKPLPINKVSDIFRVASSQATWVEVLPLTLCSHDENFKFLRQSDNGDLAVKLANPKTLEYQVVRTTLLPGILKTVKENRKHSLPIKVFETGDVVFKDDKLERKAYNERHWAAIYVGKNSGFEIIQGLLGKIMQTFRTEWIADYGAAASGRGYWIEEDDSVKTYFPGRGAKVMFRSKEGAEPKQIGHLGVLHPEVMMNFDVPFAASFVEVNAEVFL
Protocol: The modified yeast PheRS (mu-yPheRS) was prepared by introduction of a Thr415Gly or Thr415Ala mutation in the α-subunit of the synthetase (Datta et al., J. Am. Chem. Soc. 124: 5652, 2002). The kinetics of activation of NaI and Phe by mu-yPheRS were analyzed in vitro via the adenosine triphosphate-pyrophosphate exchange assay. […] In addition, the T415G mutant was generated by four-primer mutagenesis.

[2] = target: T1, mutant yeast PheRS with mutations in N412G, S418C, T415G and S437F (Saccharomyces cerevisiae, UniProt P15625, N412G/S418C/S437F/T415G); test: yeast PheRS library GFP/FACS screening, incorporation at UUU codon; assay type: cell-based; settings: mutant yPheRS N412G, S437F after two cycles of screening
T1 construct: expressed in transfected cells; host or cells: E. coli AFW and DHF cells carrying pQE9_GFP6/GFP9_yPheRS library plasmids
Text: For example, in one embodiment, a yeast PheRS library is subjected to double sieve screening in order to detect high levels of incorporation of a non-natural amino acid or misincorporation of natural amino acids other than Phe will lead to severe misfolding or unfolding of GFP. The yeast PheRS library cells are thus subjected to high-throughput screening based on flow cytommetry analysis (FACS). First, the yeast PheRS library cells are expressed in the presence of 2NaI and low fluorescent cells indicating higher incorporation of either 2NaI or other natural amino acids are collected by FACS. Next, the yeast PheRS library cells are expressed without 2NaI. Bright cells are collected in order to eliminate yeast PheRS variants that can misincorporate other natural amino acids.
Library construction was performed in two steps as well. […]
The library was transformed into chemical-competent AFW and DHF E. coli cells. […] Glycerol stocks of the library were expressed as is standard in the art.
After expression of GFP for 3 hours, 1 mL of cells (based on OD600 of 1.0) were washed with PBS and diluted in distilled water, then subjected to flow cytometric analysis (MoFlo cell Sorter®, DakoCytomation, Fort Collins, Colo.), using an excitation wavelength of 488 nm, emission of 525 nm, and a cut-off filter of 495 nm. […] Data were analyzed with Summit software (DakoCytomation). […]

[3] = target: modified yeast PheRS (T415G) and tRNA^Phe with an amber suppressor (Saccharomyces cerevisiae, UniProt P15625, T415G); assay type: cell-based; settings: FIG. 13 mass spectra
Protocol: A yeast PheRS library (using green fluorescent protein or GFP) was screened to identify PheRS mutations that enable the incorporation of NaI.
Briefly, GFP was ligated into a vector containing the mutant T415G or wild type yeast PheRS gene according to standard procedures. The mutant yeast amber suppressor tRNA (yRNA^PheAAA) was constitutively expressed under control of Ipp promoter and transformed into a Phe/Trp double E. coli auxotrophic strain AFW. Cells were grown in M9 minimal medium supplemented with glucose, thiamin, MgSO4, CaCl2, 20 amino acids (at 25 mg/L), antibiotics (35 μg/mL of kanamycin and 100 μg/mL of ampicillin). When cells reached an OD600 of 0.8-1.0, cells were pelleted and washed twice by ice-cold 0.9% NaCl and shifted to expression media supplemented with 18 amino acids (at 20 mg/L) and various concentrations of phenylalanine, tryptophan and 2NaI. Protein expression was induced by IPTG.

[4] = target: (T415A) yeast phenylalanine aminoacyl tRNA synthetase (PheRS) (Saccharomyces cerevisiae, UniProt P15625, T415A); assay type: biochemical
Sequence of (T415A) yeast phenylalanine aminoacyl tRNA synthetase (PheRS) (P15624 whole entry): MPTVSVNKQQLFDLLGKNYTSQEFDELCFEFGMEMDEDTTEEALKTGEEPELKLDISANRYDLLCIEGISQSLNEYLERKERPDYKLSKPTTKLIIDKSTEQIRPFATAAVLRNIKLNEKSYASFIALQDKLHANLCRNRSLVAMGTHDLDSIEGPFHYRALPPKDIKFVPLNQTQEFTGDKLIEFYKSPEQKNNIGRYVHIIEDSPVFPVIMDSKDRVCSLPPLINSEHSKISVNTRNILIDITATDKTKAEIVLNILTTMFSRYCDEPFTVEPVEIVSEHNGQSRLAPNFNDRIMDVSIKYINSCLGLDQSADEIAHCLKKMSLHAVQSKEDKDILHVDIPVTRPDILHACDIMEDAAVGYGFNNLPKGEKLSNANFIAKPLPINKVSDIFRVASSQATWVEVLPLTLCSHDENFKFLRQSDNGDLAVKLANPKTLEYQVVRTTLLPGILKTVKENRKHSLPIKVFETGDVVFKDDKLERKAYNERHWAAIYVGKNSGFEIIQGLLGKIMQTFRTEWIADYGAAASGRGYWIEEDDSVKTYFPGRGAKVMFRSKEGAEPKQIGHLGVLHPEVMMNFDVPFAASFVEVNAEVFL
Sequence of (T415A) yeast phenylalanine aminoacyl tRNA synthetase (PheRS) (P15625 whole entry T415A): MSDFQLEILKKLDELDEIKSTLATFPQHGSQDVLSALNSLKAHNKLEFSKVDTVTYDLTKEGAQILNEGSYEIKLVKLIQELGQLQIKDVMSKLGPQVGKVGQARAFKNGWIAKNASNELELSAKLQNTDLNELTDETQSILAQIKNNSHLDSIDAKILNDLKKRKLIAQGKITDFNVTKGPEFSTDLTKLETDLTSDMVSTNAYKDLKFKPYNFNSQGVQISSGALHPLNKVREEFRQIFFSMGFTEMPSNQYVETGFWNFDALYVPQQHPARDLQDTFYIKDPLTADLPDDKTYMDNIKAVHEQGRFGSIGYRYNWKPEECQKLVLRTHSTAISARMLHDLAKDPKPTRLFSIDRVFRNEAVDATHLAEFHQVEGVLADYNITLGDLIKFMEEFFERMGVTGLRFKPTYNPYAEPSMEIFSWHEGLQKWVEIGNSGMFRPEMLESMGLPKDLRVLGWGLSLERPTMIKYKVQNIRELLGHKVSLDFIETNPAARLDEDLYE
Protocol: The amino acid-dependent ATP-PP; exchange reaction was used to evaluate the activation of amino acid analogs by yPheRS as described in the above Examples. Briefly, a 200 microliter aliquot of reaction buffer contains 50 mM HEPES (pH 7.6), 20 nM MgCl2, 1 mM DTT, 2 mM ATP, and 2 mM ^32P-pyrophosphate (PPi) with specific activity of 10-50 Ci/mol. Depending on the activity of analogs by the synthetase, the amino acid concentration varied from 10 microM to 2.5 mM and enzyme concentration varied from 10 nM to 100 nM. Aliquots of 20 microliters were removed from the reaction solution at various time points and quenched into 500 microliters of buffer solution containing 200 mN NaPPi, 7% w/v HclO4, and 3% w/v activated charcoal. The charcoal was spun down and washed twice with 500 microliters of 10 mM NaPP; and 0.5% HClO4 solution. The radio-labeled ATP absorbed into the charcoal was quantified via liquid scintillation methods. The specificity constants were calculated by non linear regression fit for the data to a Michaelis Menten model.

[5] = test system: N[C@@H](Cc1ccc2ccccc2c1)C(=O)O; test: purified protein, by the assay type; settings: pH 7.6
[6] = test system: N[C@@H](Cc1ccccc1)C(=O)O; test: purified protein, by the assay type; settings: pH 7.6
[7] = test system: N[C@@H](Cc1c[nH]c2ccccc12)C(=O)O; test: purified protein, by the assay type; settings: pH 7.6
[8] = test system: Escherichia coli; settings: E. coli cells, cited from earlier work
[9] = substrate: N[C@@H](Cc1ccccc1)C(=O)O; test: ATP-PPi exchange of amino acids by wild type yPheRS, Example 3; assay type: biochemical, Saccharomyces cerevisiae; settings: other: enzyme wild type; pH 7.6
Protocol: The amino acid dependent ATP-PP; exchange reaction was used to evaluate the activation of non-natural amino acids by yPheRS. The assay was performed in 200 mincroliters of reaction buffer containing 50 mM HEPES (pH=7.6), 20 mM MgCl2, 1 mM DTT, 2 mM ATP and 2 mM [^32P]-PPi with specific activity of 0.2-0.5 TBq/mol. Depending on the activity of the various non-natural amino acids with the synthetase, the amino acid concentration varied from 10 microM to 5 mM and enzyme concentration varied from 10 nM to 100 nM. Aliquots of 20 microliters were removed from the reaction solution at various time points and quenched into 500 microliters of buffer solution containing 200 mM NaPPi, 7% w/v HClO4 and 3% w/v activated charcoal. The charcoal was spun down and washed twice with 500 microliters of 10 mM NaPPi and 0.5% HclO4 solution. The radio-labeled ATP absorbed into the charcoal was quantified via liquid scintillation methods. The specificity constants were calculated by nonlinear regression fit of the data to a Michaelis Menten model. The kinetic parameters for the ATP-PPi exchange of amino acids by the yPheRS (T415G), wild type yPheRS, and yPheRS_naph variant are shown in the table below.

With `N[C@@H](Cc1ccc2ccccc2c1)C(=O)O` [2Nal, 3-(2-naphthyl)alanine] the “specificity constant (kcat/KM), fold larger than that for Phe” value [1] was 8 fold and the “incorporation at UUU codon” value [2] was “around 90%”.

With `C#Cc1ccc(C[C@H](N)C(=O)O)cc1` [p-ethynyl-phenylalanine] the “incorporation into a test protein” value [3] was “incorporated into a test protein”.

In the case of `N[C@@H](Cc1ccc(Br)cc1)C(=O)O` [bromophenylalanine, p-bromo-phenylalanine], the “preference for bromophenylalanine than for naturally occurring phenylalanine” value [4] is reported as 5 fold.

Work on “yPheRS (T415G) (Saccharomyces cerevisiae S288C; T415G)” yielded a Km ([5]; other: enzyme T415G) of 7.03 ± 0.14 µM, a kcat ([5]; other: enzyme T415G) of 0.208 ± 0.04 s⁻¹ and a kcat/Km ([5]; other: enzyme T415G) of 29500 ± 5850 M⁻¹ s⁻¹. The Km ([6]; other: enzyme T415G) was 55 ± 14 µM, the kcat ([6]; other: enzyme T415G) was 0.202 ± 0.11 s⁻¹ and the kcat/Km ([6]; other: enzyme T415G) was 3510 ± 1130 M⁻¹ s⁻¹. For the same molecule, the Km ([7]; other: enzyme T415G) was 2.83 ± 1.6 µM, the kcat ([7]; other: enzyme T415G) was 0.153 ± 0.003 s⁻¹ and the kcat/Km ([7]; other: enzyme T415G) was 63200 ± 34600 M⁻¹ s⁻¹.

Molecule “yPheRS_naph variant (Saccharomyces cerevisiae S288C; N412G/S418C/S437F/T415G)” has a Km ([5]; other: enzyme naph) of 2030 ± 691 µM, a kcat ([5]; other: enzyme naph) of 0.03 ± 0.018 s⁻¹ and a kcat/Km ([5]; other: enzyme naph) of 14.5 ± 4.22 M⁻¹ s⁻¹. The Km ([6]; other: enzyme naph) was 11010 ± 2688 µM, the kcat ([6]; other: enzyme naph) was 0.0095 ± 0.0021 s⁻¹ and the kcat/Km ([6]; other: enzyme naph) was 0.855 ± 0.007 M⁻¹ s⁻¹. For the same molecule, the Km ([7]; other: enzyme naph) was 1424 ± 597 µM, the kcat ([7]; other: enzyme naph) was 0.0035 ± 0.0009 s⁻¹ and the kcat/Km ([7]; other: enzyme naph) was 2.52 ± 0.44 M⁻¹ s⁻¹.

For `CC1(C)S[C@@H]2[C@H](NC(=O)[C@H](N)c3ccccc3)C(=O)N2[C@H]1C(=O)O` [ampicillin], the IC50 ([8]; SctRNAGInCUA coexpressed with ScGInRS) is listed as “about 500 μg/mL” and the IC50 ([8]; only SctRNAGInCUA expressed) is listed as 20 µg/mL (≈ 57.2 µM).

B1: wild type yPheRS (Saccharomyces cerevisiae S288C) (protein)
chain: MSDFQLEILKKLDELDEIKSTLATFPQHGSQDVLSALNSLKAHNKLEFSKVDTVTYDLTKEGAQILNEGSYEIKLVKLIQELGQLQIKDVMSKLGPQVGKVGQARAFKNGWIAKNASNELELSAKLQNTDLNELTDETQSILAQIKNNSHLDSIDAKILNDLKKRKLIAQGKITDFNVTKGPEFSTDLTKLETDLTSDMVSTNAYKDLKFKPYNFNSQGVQISSGALHPLNKVREEFRQIFFSMGFTEMPSNQYVETGFWNFDALYVPQQHPARDLQDTFYIKDPLTADLPDDKTYMDNIKAVHEQGRFGSIGYRYNWKPEECQKLVLRTHSTAISARMLHDLAKDPKPTRLFSIDRVFRNEAVDATHLAEFHQVEGVLADYNITLGDLIKFMEEFFERMGVTGLRFKPTYNPYTEPSMEIFSWHEGLQKWVEIGNSGMFRPEMLESMGLPKDLRVLGWGLSLERPTMIKYKVQNIRELLGHKVSLDFIETNPAARLDEDLYE
With B1 the Km [9] was 3.85 ± 0.99 µM, the kcat [9] was 0.181 ± 0.011 s⁻¹ and the kcat/Km [9] was 51000 ± 22700 M⁻¹ s⁻¹.
